According to US7893197B2, “Relaxin-3 chimeric polypeptides and their preparation and use” (Janssen Pharmaceutica N.V., priority 2005, dated 2011):

What was measured:
GPCR135 = target: T1, GPCR135 (Homo sapiens, UniProt Q9NSD7); test: Radioligand competition binding, [125I]-relaxin-3, membranes of transfected COS-7 cells; conditions: for binding / affinity for GPCR135, in words: highest concentration 1 μM
T1 construct: expressed in transfected cells
T1 sequence (Q9NSD7 1-469): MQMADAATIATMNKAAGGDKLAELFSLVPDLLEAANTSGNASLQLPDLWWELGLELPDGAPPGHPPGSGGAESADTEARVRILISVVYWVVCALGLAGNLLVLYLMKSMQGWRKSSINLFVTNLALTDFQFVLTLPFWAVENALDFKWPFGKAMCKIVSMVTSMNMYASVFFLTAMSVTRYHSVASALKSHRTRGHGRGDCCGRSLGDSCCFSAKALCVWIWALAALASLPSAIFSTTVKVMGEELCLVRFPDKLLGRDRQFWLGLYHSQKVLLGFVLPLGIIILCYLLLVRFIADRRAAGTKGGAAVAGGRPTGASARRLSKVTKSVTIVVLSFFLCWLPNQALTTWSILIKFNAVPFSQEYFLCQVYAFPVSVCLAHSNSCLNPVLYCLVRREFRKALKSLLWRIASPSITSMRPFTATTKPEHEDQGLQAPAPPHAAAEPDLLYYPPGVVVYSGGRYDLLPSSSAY
Method: For GPCR135, GPCR142, and LGR7, [^125I]-relaxin-3 was used as the radioligand at a final concentration of 100 pM. Different unlabeled peptides were used in the binding assay as the competitors. […] Different unlabeled peptides including relaxin-3 chimeras at various concentrations were added to the binding assay as the competitors.

LGR8 = target: T2, LGR8 (Homo sapiens, UniProt Q8WXD0); test: Stimulation of β-galactosidase expression in SK-N-MC/β-gal cells; format: cell-based; conditions: highest concentration tested 1 μM
T2 construct: Human LGR8 cDNA containing the complete coding region was PCR amplified; expressed in transfected cells
Method: FIGS. 1A-1D show the activation of GPCR135 and GPCR142 by relaxin-3 B-chain, but not of LGR7 or LGR8. In FIG. 1A, SK-N-MC/β-gal cells expressing human GPCR135 were stimulated with relaxin-3, relaxin-3 B-chain, porcine relaxin, or INSL3 at various concentrations to inhibit the forskolin stimulated β-galactosidase expression. Forskolin was added to cells at a final concentration of 5 μM to stimulate the β-galactosidase expression. FIG. 1B depicts results for SK-N-MC/β-gal cells expressing human GPCR142 stimulated as in FIG. 1A. In FIG. 1C, SK-N-MC/β-gal cells expressing human LGR7 were stimulated with relaxin-3, relaxin-3 B-chain, porcine relaxin, and INSL3 at various concentrations to induce the β-galactosidase expression. The intracellular β-galactosidase activities were measured by a colorimetric assay using CRGP as the substrate and reading the absorbance at a wavelength of 570 nm. For FIG. 1D, SK-N-MC/β-gal cells expressing human LGR8 were stimulated as in FIG. 1C.
FIGS. 4A-4D illustrate the evaluation of the agonist activity of relaxin-3 chimeric polypeptides in biofunctional assays. Different chimeric polypeptides at various concentrations were added to SK-N-MC/β-gal cells expressing human GPCR135 (FIG. 4A) or GPCR142 (FIG. 4B) to inhibit forskolin stimulated β-galactosidase expression. Human relaxin-3 was used as the positive control. In parallel, chimeric polypeptides at various concentrations were added to SK-N-MC/β-gal cells expressing human LGR7 (FIG. 4C) and LGR8 (FIG. 4D) to stimulate β-galactosidase expression. Relaxin-3 and INSL3 were used as positive controls for LGR7 and LGR8, respectively. Intracellular β-galactosidase activity was measured by a colorimetric assay using CRGP as the substrate and reading the absorbance at wavelength of 570 nm. Data represent mean±SEM (n=3).
It has been shown that synthetic human relaxin-3 B-chain alone, but not A-chain, is an agonist for both GPCR135 and GPCR142 (Liu et al., 2003, Journal of Biological Chemistry, 278:50754-50764 and Liu et al., 2003, Journal of Biological Chemistry, 278:50765-50770). Those studies were repeated herein in SK-N-MC/β-gal cells, which harbor a β-galactosidase gene under the control of a cAMP responsive element (CRE) (Liu et al., 2001, Molecular Pharmacology, 59:420-426). In such SK-N-MC/β-gal cells, an increase in intracellular cAMP concentration leads to increased β-galactosidase gene expression, the activity of which is measured using Chlorophenol Red-β-D-Galactopyranoside (CPRG) as the substrate.
The inventive chimeric polypeptides were each independently tested for their ability to activate either GPCR135, GPCR142, LGR7, or LGR8, respectively, in separate pools of SK-N-MC/β-gal cells (see supra), each pool stably expressing one of the respective receptors, as indicated (FIG. 4).
Cells were seeded in 96-well tissue culture plate at a density of 30,000 cells/well in MEM plus 10% fetal serum, sodium pyruvate, penicillin, streptomycin, and G418 (400 mg/L). For cells expressing GPCR135 or GPCR142, forskolin was added to cells at a final concentration of 5 μM to stimulate intracellular cAMP accumulation. Different concentrations of each of the inventive polypeptides were then added to the cells to inhibit the forskolin induced cAMP accumulation. For cells expressing LGR7 or LGR8, intracellular cAMP was stimulated with each of the inventive chimeric polypeptides at various concentrations.
For all cells, after adding the chimeric polypeptides, cells were incubated for 6 additional hours in 37° C. incubator. The media was then aspirated and the β-galactosidase activities measured as previously described (Liu et al., 2001, Molecular Pharmacology, 59:420-426). The results were analyzed by Prism 3.0 software. […]

GPCR142 = target: T3, GPCR142 (Homo sapiens, UniProt Q8TDU9, L329S); test: Radioligand competition binding, [125I]-relaxin-3, membranes of transfected COS-7 cells; conditions: for binding / affinity for GPCR142, in words: highest concentration 1 μM
T3 construct: expressed in transfected cells
From the text: FIGS. 3A-3D illustrate the characterization of various relaxin-3 chimeric polypeptides using radioligand binding assays. Different relaxin-3 chimeric polypeptides were characterized for their receptor binding properties for human recombinant GPCR135 (FIG. 3A), GPCR142 (FIG. 3B), LGR7 (FIG. 3C), or LGR8 (FIG. 3D). For GPCR135, GPCR142, and LGR7, [^125I]-relaxin-3 was used as the radioligand at a final concentration of 100 pM. Different unlabeled peptides were used in the binding assay as the competitors. For LGR8, [^125I]-INSL3 was used as the radioligand at a final concentration of 100 pM. Different unlabeled peptides including relaxin-3 chimeras at various concentrations were added to the binding assay as the competitors. Data represent mean±SEM (n=3).
Radioligand binding assays for GPCR135 and GPCR142 were performed as previously described (Liu et al., 2003, Journal of Biological Chemistry, 278:50754-50764 and Liu et al., 2003, Journal of Biological Chemistry, 278:50765-50770). Membranes from COS-7 cells transiently transfected with either the GPCR135 expression vector or the GPCR142 expression vector, each described supra, were incubated with [^125I]-relaxin-3 at a final concentration 100 pM in 96-well plates. Peptides for competition binding studies were added to the binding mix (final volume: 200 μl) in binding buffer [50 mM Tris-HCl, pH 7.5, 5 mM EDTA, 1% bovine serum albumin, 0.1% protease inhibitor cocktails (Sigma)]. The binding mixtures were incubated at room temperature for 1 hour, filtered through GFC plates (Packard) pre-saturated with 0.3% Polyethylenimine (Sigma), and washed with cold washing buffer (50 mM Tris-HCl, pH 7.5, 5 mM EDTA). Microscint-40 was added to each well and the bound [^125I]-relaxin-3 was counted in a scintillation counter (TopCount/NTX, Packard).

T3 sequence (Q8TDU9 whole entry L329S): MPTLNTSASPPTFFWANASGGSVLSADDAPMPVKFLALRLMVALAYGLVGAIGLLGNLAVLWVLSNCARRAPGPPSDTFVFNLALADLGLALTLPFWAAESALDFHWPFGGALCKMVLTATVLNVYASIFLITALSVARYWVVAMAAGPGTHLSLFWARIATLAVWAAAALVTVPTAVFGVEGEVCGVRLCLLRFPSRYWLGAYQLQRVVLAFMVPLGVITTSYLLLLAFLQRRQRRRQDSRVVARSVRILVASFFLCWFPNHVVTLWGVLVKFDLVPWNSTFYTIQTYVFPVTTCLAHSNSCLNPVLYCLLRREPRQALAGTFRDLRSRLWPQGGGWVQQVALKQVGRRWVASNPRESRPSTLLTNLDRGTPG
T2 sequence (Q8WXD0 whole entry): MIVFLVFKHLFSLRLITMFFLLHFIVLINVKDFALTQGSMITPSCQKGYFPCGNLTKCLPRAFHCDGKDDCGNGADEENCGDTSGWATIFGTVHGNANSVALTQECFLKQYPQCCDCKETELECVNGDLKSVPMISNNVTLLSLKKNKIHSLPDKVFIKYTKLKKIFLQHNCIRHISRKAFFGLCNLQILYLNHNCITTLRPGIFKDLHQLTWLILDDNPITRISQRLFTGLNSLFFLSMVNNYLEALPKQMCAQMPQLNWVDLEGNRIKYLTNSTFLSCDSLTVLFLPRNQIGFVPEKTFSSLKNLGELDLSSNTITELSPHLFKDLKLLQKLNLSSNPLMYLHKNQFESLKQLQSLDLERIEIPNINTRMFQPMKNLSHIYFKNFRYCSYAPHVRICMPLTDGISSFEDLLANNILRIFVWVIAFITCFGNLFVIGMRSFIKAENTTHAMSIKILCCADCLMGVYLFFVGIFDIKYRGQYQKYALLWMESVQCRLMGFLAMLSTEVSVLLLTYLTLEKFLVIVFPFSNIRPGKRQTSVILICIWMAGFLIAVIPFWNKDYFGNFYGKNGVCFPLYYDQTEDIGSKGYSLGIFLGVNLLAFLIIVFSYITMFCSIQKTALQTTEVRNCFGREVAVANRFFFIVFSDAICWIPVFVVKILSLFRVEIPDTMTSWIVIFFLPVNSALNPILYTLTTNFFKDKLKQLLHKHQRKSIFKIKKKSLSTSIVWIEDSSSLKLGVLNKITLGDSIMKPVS

Substance	binding / affinity for GPCR135, in words (GPCR135)	activation of LGR8, in words (LGR8)	binding / affinity for GPCR142, in words (GPCR142)	affinity for GPCR135 (GPCR135; discussion)	affinity for GPCR142 (GPCR142; discussion)
R3/I4: chimeric polypeptide: human relaxin-3 B-chain and INSL4 A-chain; mature polypeptide SEQ ID NO:22 (RAAPYGVRLCGREFIRAVIFTCGGSRWFDPFCCEVICDDGTSVKLC; Human Relaxin-3/Insulin-like 4 chimeric mature polypeptide)	marginal binding at the highest concentration (1 μM)	no activity	marginal binding at the highest concentration (1 μM)		
R3/I5: chimeric polypeptide: human relaxin-3 B-chain and INSL5 A-chain; mature polypeptide SEQ ID NO:23 (RAAPYGVRLCGREFIRAVIFTCGGSRWQDLQTLCCTDGCSMTDLSALC; Human Relaxin-3/Insulin-like 5 chimeric mature polypeptide)	subnanomolar	inactive	low nanomolar range		
R3/I6: chimeric polypeptide: human relaxin-3 B-chain and INSL6 A-chain; mature polypeptide SEQ ID NO:24 (RAAPYGVRLCGREFIRAVIFTCGGSRWGYSEKCCLTGCTKEELSIAC; Human Relaxin-3/Insulin-like 6 chimeric mature polypeptide)		inactive		10 to 15 nM	10 to 15 nM
